Test results taken from patent US20120052007A1, “PERIPHERAL BLOOD SPARC BINDING ANTIBODIES AND USES THEREOF” (ABRAXIS BIOSCIENCE, LLC, priority 2010, published 2012).
“Also recorded” adds a separate entry of the source.

Legend:
[1] = test system: HT29 (colon); settings: for Tumor growth inhibition (TGI): HT29 xenograft, versus control group at euthanasia of control animals
From the text: Female and male athymic NCr-nu mice between 5 and 6 weeks of age weighing approximately 20 g were purchased from Harlan, Inc. (Madison, Wis., USA). Human cancer cells HT29 (colon), PC3 (prostate), and MDA-MB-231 (breast) were propagated in cell culture and implanted subcutaneously at one million cells per flank of female (for MDA-MB-231 and HT29) or male (for PC3 prostate tumor) nude mice and allowed to grow to approximately 60-100 mm^3 before treatment was initiated. Treatments included 5-fluorouracil (5FU), docetaxel (Taxotere®), albumin-bound paclitaxel (nab-paclitaxel), nab-paclitaxel plus suntinib malate (Sutent®), or nab-paclitaxel plus bevacizumab (Avastin®) with or without exogenously administered SPARC). Control animals for each xenograft were administered PBS. The longest (length) and shortest (width) tumor diameters (millimeter) and tumor depth were measured twice weekly. The tumor volume was calculated with the formula: tumor volume (mm3)=width×length×depth. Tumor growth inhibition (TGI) was defined as the percentage of tumor volume reduction compared with the control group at the time of euthanasia for the control animals. Tumor doubling time was defined as the time required for the tumor volume to double […]. Animal weights were measured twice weekly. Statistical analysis was performed using the Prism program (GraphPad, San Diego, Calif., USA). Analysis of variance (ANOVA) statistic was used to compare tumor growth curves.

[2] = molecular target: T1, denatured human SPARC (Homo sapiens, UniProt P09486); assay: Western blot against denatured SPARC; format: binding; settings: SDS polyacrylamide gel
T1 sequence (P09486 18-303): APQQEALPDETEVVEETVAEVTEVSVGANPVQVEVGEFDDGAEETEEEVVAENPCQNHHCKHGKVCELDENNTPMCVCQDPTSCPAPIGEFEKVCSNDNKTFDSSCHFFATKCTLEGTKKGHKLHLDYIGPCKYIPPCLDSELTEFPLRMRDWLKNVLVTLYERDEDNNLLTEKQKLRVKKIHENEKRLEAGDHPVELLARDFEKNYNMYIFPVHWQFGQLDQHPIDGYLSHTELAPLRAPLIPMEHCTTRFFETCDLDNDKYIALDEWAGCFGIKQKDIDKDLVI
From the text: Western blotting was used to determine whether the Imm series antibodies bind to linear or conformational epitopes. In this analysis, SPARC protein was run on a polyacrylamide gel in the presence of SDS. Accordingly, the SPARC protein on the gel was in its denatured form. The Imm series antibodies were used as primary antibodies and were then probed with goat anti-mouse IgG. BSA was used as a negative control.

[3] = molecular target: T2, SPARC (Homo sapiens, UniProt P09486); assay: ELISA binding to human SPARC (FIG. 16); settings: ELISA (FIG. 16)
T2 sequence (P09486 18-303): T1 sequence (P09486 18-303)

[4] = molecular target: T3, mouse SPARC (Mus musculus, UniProt P07214); assay: ELISA binding to murine SPARC (FIG. 16); settings: ELISA (FIG. 16)
T3 sequence (P07214 18-302): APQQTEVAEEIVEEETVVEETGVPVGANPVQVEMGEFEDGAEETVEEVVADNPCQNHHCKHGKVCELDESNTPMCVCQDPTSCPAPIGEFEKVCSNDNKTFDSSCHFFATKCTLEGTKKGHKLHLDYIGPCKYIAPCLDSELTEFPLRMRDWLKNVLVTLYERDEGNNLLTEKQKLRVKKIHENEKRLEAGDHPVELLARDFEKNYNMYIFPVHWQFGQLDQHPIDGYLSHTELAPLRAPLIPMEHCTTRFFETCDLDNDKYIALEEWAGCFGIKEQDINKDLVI

[5] = test system: recombinant human SPARC protein; assay: Tube Formation Assay (AngioKit) with SPARC and SPARC binding antibodies; format: cell-based; settings: 300 μg/mL antibody with 10 μg/mL recombinant human SPARC
Protocol: This assay was performed using the TCS Cellworks human AngioKit model kit (TCS-ZHA-1000, TCS Cell Works, Buckingham, UK) as described in Example 10 above. The media contained 10 μg/mL recombinant human SPARC protein. The media also contained 300 μg/mL of one of the above prepared mouse SPARC binding monoclonal antibodies (Imm12, Imm14, mHTI), or a control (mouse IgG).
To examine the effect of SPARC on tubule formation, and interference with that function by SPARC binding monoclonal antibodies, the number of tubules formed and their length was evaluated by light microscopy.

[6] = test system: HT29 colon xenografts; assay: Tumor localization of Alexa 680 labeled antibodies in HT29 xenografts; format: in vivo, mice; settings: 200 ug/mouse i.v. day 1, Alexa 680 label, followed 36 days
Protocol: Nude mice implanted with subcutaneous HT29 colon xenografts were treated with Imm series antibodies labeled with labeled with Alexa 680 fluorescent dye at dose of 200 ug/mouse. The labeled Imm antibodies were formulated in saline and administered intravenously on day 1. The fluorescent signal was followed in these mice over the course of 36 days.

[7] = test system: LL/2 (Lewis Lung Carcinoma); assay: LL/2 Lewis Lung Carcinoma survival / lung metastasis model; format: in vivo, mice; settings: 200 μg/mouse i.p. twice weekly for 4 weeks, versus mouse control IgG
Protocol: C57BL male mice (approx. 6 weeks old) were weighed, and then injected intravenously with approximately 1×10^6 cells (approximately 0.1 mL) of LL/2 (Lewis Lung Carcinoma) with 25-gauge needle. A minimum of 10 animals was used per group. Twice weekly for 4 weeks, each animal in all groups received 200 μg/mouse of a test antibody or mouse IgG. These test articles/antibodies were dosed via intra-abdominal injection into the peritoneal cavity with a 25-27 gauge needle. The first dose was administered within 30 minutes of tumor cell injection.
Animals were weighed prior to tumor cell injection, and twice weekly prior to dosing. All animals were examined twice daily for mortality/morbidity. At the end of the experiment, the mice were killed, and primary tumors and lungs were removed, fixed, and embedded. Euthanized animals and any animals found dead prior to rigor mortis were necropsied. Plasma and lungs from all animals were collected and weighed at termination. Lungs were infused with and then immersed in 10% Neutral buffered formalin. Tissues were stored for additional gross and histopathologic analysis.
Animals were administered either mHTI, Imm12, or Imm14. A negative control group was administered mIgG. The antibodies were formulated in PBS and were administered in at dose of 200 μg/mouse, twice weekly, for four weeks. The survival of the animals was then recorded over […].

[8] = molecular target: T4, recombinant human SPARC (Bio1-SPARC) (Homo sapiens, UniProt P09486); assay: ELISA binding to recombinant human SPARC (Bio1-SPARC); settings: for binding to Bio1-SPARC compared with HTI-SPARC (ELISA): Bio1-SPARC versus human platelet SPARC (FIG. 9)
T4 sequence (P09486 18-303): T1 sequence (P09486 18-303)
Protocol: The ability of Imm1 through Imm12 (the mouse-derived anti-human SPARC antibodies) to bind recombinant human SPARC (Bio 1-SPARC) was characterized by multiple ELISA assays performed at various stages of purification. FIG. 7 presents the results of an ELISA assay performed on a serial dilution (1:1, 1:10, and 1:100) of antibody supernatants prior to purification. […] Another ELISA assay was performed with the purified antibodies (FIG. 8) at concentrations of 0.04 μg/mL, 0.2 μg/mL, 1 μg/mL, and 5 μg/mL. […] An additional ELISA was performed to compare the binding of the mouse derived Immseries antibodies to two different varieties of SPARC: Bio1-SPARC, and human platelet SPARC (HTI-SPARC) (FIG. 9).
ELISA assays were also used to characterize the SPARC binding of the fully human SPARC binding antibodies, Imm13 and Imm14. […] Surface plasmon resonance binding assays, performed on the Biacore 3000® (GE/Biacore International AB, Uppsala, Sweden), tested the binding of Fab 16 to both varieties of SPARC immobilized on a sensorchip (FIGS. 11 and 12).

[9] = molecular target: T2, SPARC; assay: ELISA comparing Imm11, Imm12, Imm13, Imm14 binding to human SPARC; settings: ELISA (FIG. 13)
Protocol: An ELISA assay was also performed to directly compare the SPARC binding capabilities of selected mouse-derived anti human SPARC antibodies, Imm11 and Imm12, to the fully human Imm13 and Imm14, the results of which are presented in FIG. 13.

[10] = antibody supernatants prior to purification, dilutions 1:1, 1:10, 1:100 (FIG. 7)
[11] = purified antibodies at 0.04, 0.2, 1 and 5 μg/mL (FIG. 8)

O=c1[nH]cc(F)c(=O)[nH]1 [Imm 5-FU, 5-fluorouracil]
Tumor growth inhibition (TGI) [1]: 89.8% | body weight / tolerability ([1]; mouse, in vivo): without decrease in body weight

bevacizumab: anti-VEGF antibody, Avastin
Tumor growth inhibition (TGI) [1]: 75%

B1: Imm12: mouse-derived anti-human SPARC antibody from hybridoma, IgG1 (κ), SEQ ID NOs 7 and 14 (antibody, V domains shown)
VH: KASGYTFTKYGMNWVKQAPGKGLQWMGWINTNTGEPTYAEEFKGRFAFSLETSASTAYLQINNLENADSATYFCTRGSSYFDYWGQGTTVTV
VL: GQRATISYRASKSVSTSGYSYMHWNQQKPGQPPRLLIYLVSNLESGVPARFSGSGSGTDFTLNIHPVEEEDAATYYCQHIRELTRSVEAPSS
binding to denatured SPARC [2]: binding | binding to human SPARC [3]: specifically bind to human SPARC | binding to mouse SPARC [4]: not mouse SPARC | effect on SPARC-induced tubule formation [5]: only very slight formation of very short tubules | localization at the tumor site [6]: do not localize at the tumor site | inhibition of lung LL/2 metastasis [7]: did not inhibit lung LL/2 metastasis | binding to Bio1-SPARC compared with HTI-SPARC (ELISA) [8]: bind both varieties of human SPARC equally well | Bio1-SPARC binding (ELISA) [8, 10]: highest Bio1-SPARC binding; also recorded: highest binding overall | Bio1-SPARC binding (ELISA) [8, 11]: highest Bio1-SPARC binding

B2: Imm6: mouse-derived anti-human SPARC antibody from hybridoma, IgG1 (κ) (antibody, V domains shown)
VH: TVTGYSITSDSAWNWIRQFPGNKLEWMGHISYSGSTSYNPSLKSRISITRDTSKDQFFLQLNSVTTEDTATYYCARGSYYGNFGFTYWGQGT
VL: GETVTITCQASENIASDLAWYQKEGRSPQLLVYEARNLADGVPSRFSGSGSDTLYSLNIHSLQSEDVARYYCQHYYGTPWTFGGGTKPRAN
Bio1-SPARC binding (ELISA) [8, 10]: highest Bio1-SPARC binding

B3: Imm13: fully human anti-human SPARC antibody created from Fab6, IgG1 (κ) (antibody, V domains shown)
VH: QVQLVQSGGGLVQPGGSLRLSCAASGFTVSSNYMSWVRQAPGKGLEWVSVIYSGGSTYYADSVKGRFTISRDNSKNTLYLQMNSLRAEDTAVYYCARGIAAAGLDYWGQGTLVTVSP
VL: ELVLTQPPSVSAAPGQKVTISCSGSSSNIGNNYVYWYQQLPGTAPKLLIYRNNQRPSGVPDRFSGSKSGTSASLAISGLRSEDEADYYCAAWDDSLSGWVFGGGTKLTVL
affinity for SPARC relative to mouse derived Imm11 and Imm12 [9]: higher affinity

B4: Imm10: mouse-derived anti-human SPARC antibody from hybridoma, IgG1 (κ) (antibody, V domains shown)
VH: AASGFTFSYYGMSWVRQTPDKRLEWVATISSGGSYTYYPDSVKGRFTISRDNSENTLYLQMNSLKSEDTAMYFCARRGSSGDYYGMDYWGQG
VL: GEKVTMSCKSSQSLLYSNSQKNYLAWYQQKPGQSPKLLIYWASTRESGVPPRFTGSGSGTDFSLTISSVKAEDLAVYYCQQYYSFPRTFGGG
Bio1-SPARC binding (ELISA) [8, 10]: highest Bio1-SPARC binding

B5: Imm4: mouse-derived anti-human SPARC antibody from hybridoma, IgG1 (κ) (antibody, V domains shown)
VH: AASGFAFSSYDMSWVRQTPEKRLEWVAYITSGGGSTYYPDTVKGRFTISRDNAKNTLYLQMSSLKSEDTAMYYCAGSRSWFAYWGQGTTVTV
VL: GEGVSFSCRASQSIGTGIHWYQRRTNGSPRLLIKYASESISGIPSRFSGSGSGTDFTLTINSVESEDIADYYCQQSYSWPLTFGAGTKLELK
binding to Bio1-SPARC compared with HTI-SPARC (ELISA) [8]: bind Bio1-SPARC significantly better than HTI-SPARC | Bio1-SPARC binding (ELISA) [8, 10]: highest Bio1-SPARC binding | Bio1-SPARC binding (ELISA) [8, 11]: highest Bio1-SPARC binding

B6: Imm2: mouse-derived anti-human SPARC antibody from hybridoma, IgG1, 2b (κ) (antibody, V domains shown)
VH: TVTGYSITSDHAWSWIRQFPGNKLEWMGYISYSGSTSYNPSLKSRVSVTRDTSKNHFFLQLNSVTTEDTATYYCARAAFIGGWFAYWGQGTT
VL: GEKVTITCSASSSVSYMHWFQQKPGTSPKLWIYSTPNLASGVPARFSGSGSGTSYSLTISRMEAEDAATYYCQQRSSYPLTFGGGTKLELKQ
localization at the tumor site [6]: localizes well
